In the DeepSol protein solubility set:

Assay: soluble on expression in E. coli; label from the status in PepcDB or PDB records

Sequence	soluble on expression in E. coli
MGSDKIHHHHHHMSESCILFFVKYPEPGKVKTRLGEVVGNDKAAMLYRHFVQDMLQGLARLHADLHICYVPGDADLPEKFKAWLGPQHMFAAQQGLDLGERMKHAMQKAFDDGYDRVVLMGSDIPDYPCELVQKALNDLQHYDAAIGPAFDGGYYLIGFRKDSFCPDVFDGIRWGEADVYQPTVEKMRRARLEVLQLPDWNDVDTVWDLNVLYRTNKNSSFRRSSTYALLRENDALIRQYDIDLPGMAPVEKE	not soluble
MGHHHHHHSHMGKGTFVYRTTITSPHEEVWAFFSSPTNLQTLTKIPKVVLDSTSETTQGSEIEMKLFVLGIPFQWKAYIEAYNPPFSFTDVAIKMPFPIVYWRHTHRFTTEGERTVMIDEIQYEIKMANKLVIFFLRRMFRARESALHRYFQS	soluble
MLDLRFQRLHGKTTLTTRHHVGLLTVQRPFYPEEETCHLCLLHPPGGIVGGDELIINAIIDSDCHTLITMPGASKFYRSSGAQAHLQQNLTLCNNATLEWLPQDSIFFPGAHATLHTVFHLSSSSTLLAWDLLCLGRPVIGETFSHGTLANRLEIWVDGSPLLIERLHVANGELTCVARKPWVGTMLFYLGNETQLEDIREKLTPLENYAGATLTDGLLTVRFLSDDNLRCQ	not soluble
MYIPKYFKVTNAEEIWNFVQENSFGTVVTTEQGKPIATHLPLGFNKKDDHYYITGHFAYGNPQWRTFEACEDVLVMFQGPHAYISSSWYSRENVPTWNYQAVHMYGKASMLEKDELAEELTIMLEQKTPTQAFSVLWDKLSPKLLESELKGIVGFKIKVEDIQAAYKLSQNRNETDYMNVIEQLQNEENPNAKQMAELMEDKLKKQI	not soluble
ASLFPPGLHAIYGECRRLYPDQPNPLQVTAIVKYWLGGPDPLDYVSMYRNVGSPSANIPEHWHYISFGLSDLYGDNRVHEFTGTDGPSGFGFELTFRLKRETGESAPPTWPAELMQGLARYVFQSENTFCSGDHVSWHSPLDNSESRIQHMLLTEDPQMQPVQTPFGVVTFLQIVGVCTEELHSAQQWNGQGILELLRTVPIAGGPWLITDMRRGETIFEIDPHLQERVDKGIETD	soluble
MWPAPRRVNLRSLGIAWPSPGGLDTLASNFPSEGCQNMNLYSLLSARAAGGKPVRVGLIGAGKFGSMVLAQAQRIAGFHMVAVADLNVGKARESFDRVGWPKERYDATSCADALKSGKTYVTDDVNELFACGEIECIIEATGHPLAGARHALGAIDHNKHVVMVNVEADVMVGPILAEKARAKGLIYSMAYGDQPALICELVDWARATGFEVVSAGKGMNFEPRYRYSTPDTVWSYFGWTDEEVAKGDFNPKMYNSFTDGTKAAIEMAAVANGTGLDCPDDGLAFPPAGLHDLARVFRPAADGGRMSRSGLVDIAASQEPDGREVFNNIRYGVFVTFKAHNDYARACFKQYGLLTDPSGWYASMWRPFHIIGLETSISVLSAVLRNEPTGCSKEFRGDAVATAKKDMQPGEMLDGEGGYAVWANAIPATRSLDIKALPIGLAHNVKLKRPIKKDQIVSFDDVELVSDLDVVKLRQDMEHQFRPQKDAAA	not soluble
GPGSMEFVAEAHGYLITGLALDSQGDLFAICSCSGELLRLNKEENTLVSIMATEASPYNIAIEPNSGSVFITDRSENAILKLEDAATVRAEQELREGKDQESQAAYTTVQYLNAFEGRSFLGPTAIAFSPSGELFFTDAGAEGDSSFSDPVGAVYRTTMNHEHLVPICTRGLIRPSAIAVAPDNSVYVCEQGTNRVLRFVQRSTFYVGNVFAQLQGGMGPRAIAVSPRDGSVFVAQYDISAVEAPTEEGESEKGNEDAGEGEGGDDGKVQNQSALESAGEGGIITVLGRDGDVRGIVRTMRPCITAIALDASGETLYVMEGDEANGSSKLYKLQVLPLDDQQCGGQAE	not soluble
AEAKSKLTVALGKDIAGTPVVGDLAKMPHLLVAGMTGSGKSVGVNGMIMSMLFKATPDEVRFIMIDPKMLELSIYDGIPHLLCPVVTDMREAGQALNWCVAEMEKRYRLLSHAGVRNLEGFNQKVEAAKAAGKPLLNPFSLNPDEPEPLEKLPLIVVVIDELADLMMTERKAVEQQIARLAQKARAAGIHMIVATQRP	not soluble
MNRSMKQYDPIDFVVDWVDSNDISWKKKKSLYEENVISSVDDSQARYRDWGIFKYWFRAVEKNAPWVHKIFIITDHQNPKFLNKHSSKIVFVNHEDFIPNEYLPTFNSDAIEIGIQNIPGLSEHFVFFNDDMFINKPVKPIDFFDGNIPKDSGVMGPQFPISNSITHITVNNMEIINKYFLKKKVLRKYFFKFFNWRYGKDNIRTATALPWQVFIGFYDMHIPISFLKSTFDNVWSEVGNLLSQNYQHRFRSQLDYSVWLMRYFQLASGNFFPRRTRFGKYYNLGEQTEEIINDIKTGKHALIVLNDQESINDYPYEKKLVNEVFERRYSRKSEFENLEHHHHHH	not soluble
MSLRWEGALSAGQRKASNAIVVNLKAKTDMLLWAVAGSGKTEMMFEGMDWALRQGFRICVASPRVDVCLELLPRLKEAFPSIDIVCLYGDSKDNYQGEQFVIATTHQLIRFYEAFQVIFIDEVDAFPYAKDPFLEYAVMKARTKEGSTIIITATPEKKWQEECVRGKRNFVKIPGRYHRKKLPVPRTCWIGPWKKNLAKGKITPKLIQWMNDVKKKDQPALIFFPEIDAMNKFANALENKGYASEGHHHHHH	not soluble
MSLIIKNAKVVTHDMQLKEPWAIAGHVHDSIKNTFITLEDSEGNIGIGSCATQNDSEESVKECFDILESFSSSLVGKELGLNENTFGWIASELPLNTEANAAVDIAIHDLWAKREEKTLVDALGKKHQSFDTSITIGVASLEKTIEMAKKHIGNGFSILKIKIGDCVEEDIERMKALFELKPEKIKIRVDANRGYSKEELIKFYEKTLHLGLELIEQPMEVDQNNEMLYFPEEIRKICVADESLQNFDDAVRLLKEPKPFGVFNIKLMKCGGVFAAKKIASLAEENGIELMWGCFDESKISISAALHTALSCENTRYIDLDGFFDLGWDLIEGGYRCENGIMSAIERPGLGVFSEGHHHHHH	soluble
MERVNHLLQRLLGNQRFKQRYEQMKRYILEHPDVQPFLRAHERQLSADAVDRSLMKLYEFIEQHGNCRQCPGLERCNNMLPGYHPNLVVNGGRIDVEYDRCPKKVQHDERKRQESLIQSMFMPREILRASLSDVDLNDDGRIKAIRFAERFVAEYEPGKKMKGLYLHGSFGVGKTYLLAAIANELAKRNVSSLIVYVPELFREIKHSLQDQTMNEKLDYIKKVPVLMLDDLGAEAMSSWVRDDVFGPILQYRMFENLPTFFTSNFDMQQLAHHLTYSQRGEEEKVKAARIMERIRYLAYPIEITGPNRREQNI	not soluble
KIWLFFIEQANNEIRIDLRSNGINVRDIAIKYGGGGHNNASGAIITNKKQISDVVSD	soluble
MGSSHHHHHHSSGLVPRGSHMANVAIIGTEKSGRTSLAANLGKKGTSSDITMYNNDKEGRNMVFVDAHSYPKTLKSLITALNISDIAVLCIPPQGLDAHTGECIIALDLLGFKHGIIALTRSDSTHMHAIDELKAKLKVITSGTVLQDWECISLNTNKSAKNPFEGVDELKARINEVAEKIEAENAELNSLPARIFIDHAFNVTGKGCVVLGVVKQGISKDKDKTKIFPLDRDIEIRSIQSHDVDIDSAPAGTRVGMRLKNVQAKDIERGFIISDKEIVTTDYTLECTVSKFTKKIEPASVLHLFVGLQSEPVRVEKILVDGNEVEEAKPGSTCVLELSGNKKLAYSKQDRFLLANLDLTQRFAAYGFSK	soluble
MSLIKLRPHHIMCFQGYEGKGYSQDFIDNMDNIYRDLKEKDNLKIKIVFSTDDVCGSCPNKISDNNCGCNEKVMAIDNKVIRVLKLKQKIYTYNELVNKLRLNINEGVMKDICGQCVWYENSKCKTSILSLEGHHHHHH	soluble
MSLNATARQEPADLNDPALRARAVTAARGDAPFDMLITGGRLLDTVTGLIRQADIGLVGALISSVHAPASRTDAVEIIDAAGSILTPGLIDTHMHIESSMVTPAEYASAVLPRGVTTIVWDPHEFGNVHGLDGVRWAIEAARSLPLRMILLAPSCVPSAPGLELAGADFDASMITEMLHSSAVGGVAEVMNMRGVIDGDPRMTDIVNAGLAAGKLVCGHARGLEGADLNAFMASGITSDHELTSGADLLAKLSAGLTIELRGSHDHLLQEFVEVLSGLGHLPPTVTLCTDDVFPDELQEGGGLDDVVRRLVRYGMKPEWAIRAATFNAAQRLKRSDLGLVATGRRADIVLFEDLTEFRARLVISGGRIVARNGSMQVAVQQIDTAPLVNSVKLPPLTENDFRIPAKGERVRVATIDRPRFTQWGEAETEVRDGFIVPPAGSAMISVAHRHGKTDGIPRIGFLTGWGEWRGAFCTTVSHDSHNLTVFGGNAGDMALAANAVISAGGGMAVAKDGRIEAMLPLPLSGLVTDASLKDTALAFAGIRKAMEKIVTWKPPYLVFKACFGATLACNVGPHQTDQGIADVVTGKVLENPVLAVWEGHHHHHH	soluble
MAILLNRPTLSRLPWFPLRPEDFTTLLQTADFRLRLLEAIAAATRRVYICALYLENEEAGQEMLDALYRAKQRNPQLDVRVMVDWHRAQRGRIGEDQSHCNASWYREEAARRELDIPIYGVPVQTRELFGVLHLKGFVIDDTVFYSGASLNNVYLHKLDKYRFDRYHLIRSPELADAMAGFMAEQFFNDPAVFRLDKPTPSTRSIRKEIRQLRDKLSHSQYRPGSAHAAPDELAISPIVGIGKGNRLNRAILDVIAGAQRRLFICTPYFNFPRAVVLEINRALRRGVEIDIVVGDKTANDFYIPPEQPFRVIGALPYLYEMNLRRFAKRQRQYLSREQLRVRLWKDGDNTYHLKGIWSDDRFILLTGNNLNPRAFRLDLENALLLRDPQGALRGQSAAEQQSILRHTTQLSHYRQLEDVRAYPEQIKKLLTRLSRVRIDRMLNLMLLEHHHHHH	soluble
MTRAEVGLVWAQSTSGVIGRGGDIPWSVPEDLTRFKEVTMGHTVIMGRRTWESLPAKVRPLPGRRNVVVSRRPDFVAEGARVAGSLEAALAYAGSDPAPWVIGGAQIYLLALPHATRCEVTEIEIDLRRDDDDALAPALDDSWVGETGEWLASRSGLRYRFHSYRRD	soluble
TPTDKHGGSDTRCPLMVKILDAVKGTPAGSVALKVSQKTADGGWTQIATGVTDATGEIHNLITEQQFPAGVYRVEFDTKAYWTNQGSTPFHEVAEVVFDAHPEGHRHYTLALLLSPFSYTTTAVVSSVHE	soluble
GTEVEIPVVHDPKGEAVLPSVFEDGTRQGWDWAGESGVKTALTIEEANGSNALSWEFGYPEVKPSDNWATAPRLDFWKSDLVRGENDYVTFDFYLDPVRATEGAMNINLVFQPPTNGYWVQAPKTYTINFDELEEANQVNGLYHYEVKINVRDITNIQDDTLLRNMMIIFADVESDFAGRVFVDNVRFEGA	soluble
METASITEWTFVQEVPIPEDVANLMVPGEDAVVAFKTFRDSAIFTTKRLIVRDSQGLRGKKVEVYSLPYSSVNMWSTENAGTFDFNAEVELWTRAGKIKIKIGRDLDVRRLDMLLAQCILG	not soluble
FLPTSREEMDQLGWDSCDVIIVTGDAYVDHPSFGMAIIGRLLEAQGFRVGIIAQPEWQTKDAFMTLGKPNLFFGVTAGNMDSMINRYTADKKIRHDDAYTPNNKGGMRPDRCSLVYSQRCREAYKDVPIVLGGIEASLRRVAHYDYWSDKVRRSILLDAKADILLFGNAERALVEVAHRLANGESINKMVDIRGTAVNLAQVPEHFKIIDSTRIDQPNKPFVPSNPYEVETQCATKGDEKEEAQPITIRPSRHDAKTTAVRLPSFEKLVNDRILYAHASRVLHLETNPYSGRALVQRHGDRELWVNQAPIPLTTEEMDFVFGLYYARVPHPKYGDAKIPAYDMIKTSVNIMRGCF	not soluble
